Consider 17 molecules from US20230235078A1 (University of Texas, published 2023).

T1: human DDR2 ECD (human, UniProt Q16832 22-399)
T1 construct: extracellular domain; also called DDR2 ECD protein
T1 sequence (looked up): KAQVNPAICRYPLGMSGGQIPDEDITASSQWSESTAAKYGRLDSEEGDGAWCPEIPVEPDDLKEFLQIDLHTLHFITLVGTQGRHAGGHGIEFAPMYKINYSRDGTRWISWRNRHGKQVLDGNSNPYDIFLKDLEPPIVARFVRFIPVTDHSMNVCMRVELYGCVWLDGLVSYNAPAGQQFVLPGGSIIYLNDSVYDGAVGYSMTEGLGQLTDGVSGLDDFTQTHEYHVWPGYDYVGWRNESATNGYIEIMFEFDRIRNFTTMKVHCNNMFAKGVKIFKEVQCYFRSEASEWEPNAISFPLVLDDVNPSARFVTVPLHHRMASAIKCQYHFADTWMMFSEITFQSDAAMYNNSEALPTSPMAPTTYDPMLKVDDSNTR

B1: DDR1-34 (antibody, V domains shown)
VH: QSVKESGGGLVKPEGSLTLTCKASGFDLSSYYYMCWVRQAPGKGLEWIACIYTSSGATWYANWAKGRFTISKTSSTTVTLQMTALTAADTATYFCARGGWCDFNLWGPGTLVTISS
VL: ELDLTQTPASVSAAVGGTVTISCQSSENLYKDNYLAWYQQKPGQPPKLLIYGASNLASGVPSRFKGSGSGTQFTLTISDLECDDAATYYCAGGYDSVVDFGGGTEVVVK
notes: Rabbit variable domains; Detected with anti-rabbit HRP antibody in the DDR2 ELISA; also called DDR1-34K/DDR1-34H
B2: DDR1-22 (antibody, V domains shown)
VH: QSVKESGGRLVTPGGSLTLTCTVSGFSLSDYAMIWVRQAPGKGLEYIGIINNGDIYYATWAKGRFTISETSSTTMGLNIISPTTEDTATYFCARPGYRTGIWLWGPGTLVTISS
VL: ELVLTQTPSPVSAAVGGTVTINCQSSKNIYNNNALSWFQQKPGQPPKLLIYGASTLASGVPSRFKGSGSGTQFTLTISDVQCDDAATYYCAADYSDISDNNFGGGTEVVVK
notes: Rabbit variable domains; Detected with anti-rabbit HRP antibody in the DDR2 ELISA; also called DDR1-22K/DDR1-22H
B3: DDR1-21 (antibody, V domains shown)
VH: QSLEESGGRLVTPGTPLTLTCTVSGFSLSSYGVHWVRQAPGKGLDWIGKIYPSGSIYYSSWAKGRFTISKTSTTVDLKMTSLTTEDTATYFCVRYLTGSSDLHLWGPGTLVTISS
VL: ELVLTQTPSSTSAAVGGTVTISCQSSQSVVDKNWLAWYQQKPGQPPKLLIYEASKLASGVPPRFSGSGSGTQFTLTISGVQCDDAATYYCAGDFESGVSGFGGGTEVEIK
notes: Rabbit variable domains; Detected with anti-rabbit HRP antibody in the DDR2 ELISA; also called DDR1-21K/DDR1-21H
B4: DDR1-13 (antibody, V domains shown)
VH: EQSVEESGGRLVTPGGSLTLTCTASGFSLNNYAIIWVRQAPGKGLEYIGIFNNGDIYYANWAKGRFTISKTSTTVGLKIVSPTTEDTATYFCARTGYRTGGWLWGPGTLVTISS
VL: ELVMTQTPSPVSAAVGGTVSISCQSSKSVYNNNALSWFQQKPGQPPKVLIYGVSTLDSGVSSRFSGSGYGTEFTLTISDVQCDDAATYYCAGDYSDISDNNFGGGTELEIK
notes: Rabbit variable domains; Detected with anti-rabbit HRP antibody in the DDR2 ELISA; also called DDR1-13K/DDR1-13H
B5: DDR1-15 (antibody, V domains shown)
VH: SQSLEESGGDLVKPGASLTLTCTASTFSFNSRYWTCWVRQAPGKGLEWIGCINNGDISTYYASWATGRFTISKSSSTTVTLHMTSLTAADTATYFCAKGGNLAGDCYGLWGPGTLVTISS
VL: ELVMTQTPASVEVAVGGTVTIKCQASQTIYSSLAWYQQKPGQPPKLLIYKASTLASGVPSRFKGSGSGTQFTLTISGVQCDDAATYYCQQGSSISNVDKNAFGGGTEVEIK
notes: Rabbit variable domains; Detected with anti-rabbit HRP antibody in the DDR2 ELISA; also called DDR1-15K/DDR1-15H
B6: DDR1-28 (antibody, V domains shown)
VH: QSVEESGGRLVTPGTPLTLTCTVSGFSLSSHDMIWVRQAAGKGLEWIGLIISSGNTWYASWAKGRFTISKTSTTVDLKMTSLTTEDTATYFCARDVYSGASPWGPGTLVTISS
VL: ELDLTQTPASVEAAVGGTVTIKCQASQSIDNNDLAWYQQKPGQPPNLLISRTSTLASGVSSRFKGSGSGTEFTLTISDLECADAATYYCQSYCVNTYGYTFGGGTEVVVK
notes: also called DDR1-28K/DDR1-28H
B7: DDR1-6 (antibody, V domains shown)
VH: SQSLKESGGDLVKPGASRTLTCIAPGFSFSSSYYMCWVRQAPGKGLEWIACIYASSGSTYYASWAKGRFTISKTSSTTVTLQMTTLTAADTATYFCAAILGADYRLTRLDLWGQGTLVTVSS
VL: ELVMTQTPSPVSAAVGGTVTISCQSSQSVYSNYLSWYQQKPGQPPKLLIYETSTLASGVPSRFKGSGSGTQFTLTISDVQCDDAATYYCQGGYSEIIENTFGGGTEVEIK
notes: also called DDR1-6K/DDR1-6H
B8: DDR1-20 (antibody, V domains shown)
VH: QSVKESGGGLFKPMDTLTLTCTVSGFSLSDYAMSWVRQAPGKGLEWIGIINSRDDTGYASWAKGRFTISKTSSTTVDLRITSPTTEDTATYFCAREDSSIPFIVGNYYGMDLWGPGTLVTVSS
VL: ELDLTQTPASVSAAVGGTVTINCQSSQIIDHDHLSWYQQKPGQRPKLLIYRASTLTSGVPSRFKGSGSGTDFTLTISDLECADVATYYCQNNNGMTVSDFNAFGGGTEVEIK
notes: also called DDR1-20K/DDR1-20H
B9: DDR1-5 (antibody, V domains shown)
VH: QSVKESGGRLVTPGTPLTLTCTVSGFTLSNNAISWVRQAPGKGLEWIGIIYASGRTYYATWAKGRFTISKTSTTVDLKMTSPTTEDTATYFCARGDTETDYGIPYFDLWGPGTLVTISS
VL: ELVLTQTPASVSEPVGGTVTIKCQASQTISSWLSWYQQKPGQPPKLLIYYAFNLASGVPSRFKGSGSGTEYTLTISDLECADAATYYCQCTYGSGSSSSYGCAFGGGTELEIK
notes: also called DDR1-5K/DDR1-5H
B10: DDR1-12 (antibody, V domains shown)
VH: QSLEESGGRLVTPGTPLTLTCTVSGIDLSNTWMNWVRQAPGKGLEWIGVITDSGTTYYANWAKGRFTISRTSTTVDLKMPSLTTEDTATYFCGRDPGDITSGTNDLWGPGTLVTISS
VL: ELVLTQTPASVSEPVGGTVTIKCQASQTIYSNLAWYQQKPGQRPKLLIYQASKLASGVPSRFKGSGSGTEYTLTISDLECADAATYYCQSYYGADDYTFGGGTEVVVK
notes: also called DDR1-12K/DDR1-12H
B11: DDR1-11 (antibody, V domains shown)
VH: QSLEESGGDLVKPGASLTLTCTASGFSFSSGYYMCWVRQAPGKGLEWIACIYTGRTDFTDYASWAKGRFTISKTSSTTVTLQLTTLTAADTATYFCARGDYSGGVGGNYWLDLWGQGTLVTISS
VL: ELVMTQTASPVSAAVGGTVTINCQASQSIGSTYLSWYQQKPGQPPKLLIYKASILASGVPSRFSGSGSGTEYTLTISGVQCDDAATYYCLYGGFGSSTGDAFGGGTVLVVK
notes: also called DDR1-11K/DDR1-11H
B12: DDR1-17 (antibody, V domains shown)
VH: SSVEESGGRLVAPGTPLTLTCTVSGFSLNRYAMSWVRQAPGKGLEWIGIIGSSGSTYYASWAKGRFTISKTSTTVDLKITSPTTEDTATYFCARDLDDSYGYTYATGMDIRLDLWGQGTLVTVSS
VL: ELVLTQTPASVSEPVGGTVTIKCQASQSIGSYLSWYQQKAGQPPKRLIYEASTLASGVPSRFSGSGSGTDFTLTISDLECADVATYYCQNNNGMTVSDFNAFGGGTEVEIK
notes: also called DDR1-17K/DDR1-17H
B13: DDR1-1 (antibody, V domains shown)
VH: QSVEESGGRLVTPGTPLTLTCTVSGFSLSRYAMTWVRQAPGKGLEWIGIIGSSGLTYFATWAKGRFTISKTSTTVDLKITSPTTEDTATYFCARGMWYDDSDDYEDYFNLWGPGTLVTISS
VL: ELVLTQTPASVSAAVGGTVTINCQASQNIYSNLAWYQQKPGQPPKLLIYGASNLESGVPSRFKGSGSGTQFTLTISDLECDDAATYYCQSGYYSSSTDIAFGGGTEVVVK
notes: also called DDR1-1K/DDR1-1H
B14: DDR1-29 (antibody, V domains shown)
VH: QSVKSGGGLVKPGASLTLTCKASTFSFNSRYWTCWVRQAPGKGLEWIGCINNGDITTYYTNWATGRFTISKSSSTTVTLQMTSLTAADTATYFCAKGGNLAGDCYGLWGPGTLVTISG
VL: ELVMTQTPASVEAAVGGTVTIKCQASQSISNHLGWYQQKPGQPPKLLIYRASTLESGVSSRFKGSGSGSEFTLTISDLECADAATYYCQSYYIINRSNYANSFGGGTEVEIK
notes: also called DDR1-29K/DDR1-29H
B15: DDR1-23 (antibody, V domains shown)
VH: SQSVKESGGDLVKPGASLTLTCKASGFDLRSYYYMCWVRQAPGKGLEWIACIHGGEGNTYYASWAKGRFTISKTSSTAVTLQMTSLTAADTATYFCARGGWTNYFWGPGTLVTVSS
VL: ELVLTQTPSSVSAAVGGTVTISCQSSQSVYSNNYLAWYQQKPGQPPKLLIYAASTLASGVPSRFKGSGSGTQFTLTISGVQCDDAAVYYCLGGYNDDANFGGGTEVEIK
notes: also called DDR1-23K/DDR1-23H
B16: DDR1-26 (antibody, V domains shown)
VH: EQSLKESGGDLVKPGASLTLTCTASGFDLSSNYYMCWVRQAPGKGPEWIACIYSSNTRTWYARWAKGRFTISKTSSTAVTLQMTSLTAADTATYFCARGGWTNYLWGPGTLVTISS
VL: B15 VL with V3D, Q27E, Y34H, K65S, E107V, I108V
notes: also called DDR1-26K/DDR1-26H
B17: DDR1-9Hu-Ab2 (antibody, V domains shown)
VH: QVQLVESGGRVVQPGRSLRLSCTASGFSLNRYYMLWVRQAPGKGLEWIGTISYGDTTYYASWAKGRFTISRDNSKNTLYLQMNSLRAEDTAVYYCARADTGDNGYLGLQLWGQGTLVTVSS
VL: DIQMTQSPSSVSASVGDRVTITCRASQSIGSVLAWYQQKPGKAPKLLIYGVFSLQSGVPSRFSGSGSGTDFTLTISSLQPEDFATYYCQYIPYGSSPFGGGTKVEIK
notes: Humanized form of DDR1-9

Positions count from the first letter of the chain named.

For one test, the target named is T1, human DDR2 ECD. Kind of test: ELISA, DDR2 ECD coated, antibody at 1 ug/ml, HRP anti-rabbit detection. The method, then:
FIG. 19. Determination of cross-reactivity of a panel of monoclonal antibodies to human DDR2 using ELISA method. DDR1 or DDR2 ECD protein was coated on a high binding plate and each of monoclonal antibodies at 1 ug/ml concentration was added for binding detection with HRP conjugated anti-rabbit antibody (Jackson ImmuneResearch, PA).
To determination cross-reactivity of a panel of anti-human DDR1 monoclonal antibodies to human DDR2 ECD, an ELISA method was used. DDR1 ECD or DDR2 ECD protein was coated on a high binding plate and each of monoclonal antibodies was applied at 1 ug/ml concentration and binding was detected using HRP conjugated anti-rabbit antibody (Jackson ImmuneResearch, PA). Monoclonal antibodies DDR1-3; DDR1-9; DDR1-10; DDR1-14 and DDR1-33 were specific for DDR1 epitopes, while clones DDR1-13; DDR1-15; DDR1-21; DDR1-22 and DDR1-34 appear to recognize epitopes present on both DDR1 and DDR2 ECD.
For orientation: An ELISA detects its analyte on a solid surface through an enzyme-linked reagent.
B1: the binding result is given as “binds”.

Consider B2, for which the binding result is “binds”.

On to B3, for which the binding result is recorded as “binds”.

On to B4, for which the binding result was “binds”.

For B5, the binding result was “binds”.

The target in the next test is T2, Human DDR1 extracellular domain (ECD) protein (human, UniProt Q08345 21-417).
T2 construct: it is treated here as the same molecule; also called recombinant human DDR1 ECD; huDDR1 ECD; not shown: 6xHIS-tag
T2 sequence (Q08345 21-417): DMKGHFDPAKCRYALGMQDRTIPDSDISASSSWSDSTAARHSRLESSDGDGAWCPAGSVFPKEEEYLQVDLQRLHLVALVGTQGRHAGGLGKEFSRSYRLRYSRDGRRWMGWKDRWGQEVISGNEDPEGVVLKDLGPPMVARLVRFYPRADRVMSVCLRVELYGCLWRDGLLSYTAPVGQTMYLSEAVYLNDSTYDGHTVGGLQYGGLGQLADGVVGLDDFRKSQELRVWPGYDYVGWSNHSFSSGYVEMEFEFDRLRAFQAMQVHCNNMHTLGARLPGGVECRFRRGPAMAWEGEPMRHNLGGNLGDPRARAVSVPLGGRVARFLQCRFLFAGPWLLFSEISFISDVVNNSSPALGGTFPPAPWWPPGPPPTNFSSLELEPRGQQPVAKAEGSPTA
The test can be described thus: ELISA on DDR1, antibody at 10 and 1 µg/ml.
For B6, the binding result is “binds”.

Regarding B1, the binding result is “binds”.

On to B2, for which the binding result is on record as “binds”.

For B7, the binding result is “binds”.

Consider B8, for which the binding result is “binds”.

For B9, the binding result is on record as “binds”.

Regarding B10, the binding result is recorded as “binds”.

Turning to B3, the binding result is on record as “binds”.

For the molecule B11, the binding result was “binds”.

Turning to B12, the binding result is “binds”.

Consider B13, for which the binding result was “binds”.

As for B4, the binding result is “binds”.

Turning to B14, the binding result is “binds”.

B5: the binding result is recorded as “binds”.

Turning to B15, the binding result was “binds”.

For the molecule B16, the binding result is given as “binds”.

The target in another test is T2, Human DDR1 extracellular domain (ECD) …. Kind of test: BLI (Octet); target not given, recombinant DDR1 assumed. On the technique in general: In BLI a coated tip is dipped into the sample, and binding shifts an interference pattern.
As to B17, the Kd worked out at 0.77 nM, the koff amounted to 0.000113 s⁻¹ and the kon is 146000 M⁻¹ s⁻¹.

By Kd is commonly meant the free concentration of one partner at which half of the binding sites on the other are occupied at equilibrium, for simple one-to-one binding. What is called koff is a measure of how fast the partners let go of each other. Usually kon stands for the rate constant with which the complex forms.
